# Numbering of substitutions follows the chain as printed.
# B1: SR16983-R2-P2-G11 (VHH)
# VHH: QVQLVESGGGLVQAGGSLRLSCAASGTTFSFNYMGWYRQAPGNQRDLVARISSGGITNYADSVKGRFTISGDNAKNVVYLQMNSLKPEDTARYYCFYNGHLNKWGQGTQVTVSS
# B2: SR16983-R2-P5-H07 (VHH)
# VHH: B1 VHH with N32V, D46E, G54D, I56S, A60S, T68L, D72A, V77T
# B3: SR16983-R3-P4-F06 (VHH)
# VHH: B1 VHH with V2L, A23E, G26R, V77T
# B4: SR16983-R3-P2-G05 (VHH)
# VHH: B1 VHH with V2L, A14T, N32V, G54D, I56S, D72G, V77T
# B5: SR16983-R3-P2-B02 (VHH)
# VHH: B1 VHH with V2L, N32V, G54D, I56S, V77I
# B6: SR16983-R3-P2-E09 (VHH)
# VHH: B1 VHH with V2L, I56S, G71A, V77T, Y94T, Y97W, H100Y, L101T
# B7: SR16983-R3-P5-C03 (VHH)
# VHH: B1 VHH with V2L, N32V, D46E, I51L, G54D, I56S, T68L, V77T
# B8: SR16983-R2-P3-F07 (VHH)
# VHH: QLQLVESGGGLVQAGGSLRLSCAASGTTFDMNSMGWYRQAPGFKRDLVATISIGGDTNYTDSVKGRFTISRDNAKNTVYMQMNSLKPEDTAVYYCNAERIWPNRRSFWGQGTQVTVSS
# B9: SR16983-R3-P5-D01 (VHH)
# VHH: B8 VHH with M34I, F43K, K44Q, D46E, D56S, T60A, D72G, S106T
# B10: SR16983-R3-P2-D12 (VHH)
# VHH: QLQLVESGGGLVQAGGSLRLSCAASGSTFNFNIMGWYRQVPGKQRELVAVINSGGSADYTEDVKGRFTISRDNAKSIMYLQMNSLKPEDTAVYYCNAKKVEPTLFTTTYWGQGTQVTVSS
# B11: SR16983-R3-P4-A07 (VHH)
# VHH: QVQLVESGGGLVQAGGSLRLSCAASGRTFVGSYVMGWFRQAPGKEREFVAASSRSTGNTVYLDSVKGRFTVSRDDAKNTLYLQMNSLKPEDTAVYYCATRASINYNYAAWPYWGQGTQVTVSS
# B12: SR16983-R3-P3-C06 (VHH)
# VHH: QLQLVESGGGLVQPGGSLRLSCAASGFTFSTKWMYWVRQGPGKGLEWVSTIDASGGSTYYADSVKGRFTISRDNTEKKVYLQMNSLESADTAVYYCARSAGGQFRGRGTQVTVSS
# B13: SR16983-R3P2G08 (VHH)
# VHH: QLQLVESGGGLVQAGGSMRLSCTASGSTVRVTAGGWYRQAPGNERELVADIDNGGSTTYADSVKGRFTISRDNAKNAVDLQMNSLKPEDTAVYRCFVIAIPDSAPRPRAYWGQGTQVTVSS
# B14: SR16983-R3-P4-H10 (VHH)
# VHH: QVQLVESGGGLVQAGGSLRLSCAASGLTSSTYVMAWFRQAPGKEREFVSVIDSRGDTTYANSVKGRFTTSRDFGKNTVYLQMNSLQPEDTALYYCAARASPAYVARLYAYWGRGTQVTVSS
# B15: SR16983-R3P2H01 (VHH)
# VHH: B13 VHH with E6Q, M18L, A40T, Q116E
# Target: T1, human APC-PPACK (active site-blocked APC) (human, UniProt P04070 43-461, active site bound by the tripeptide inhibitor Phe-Pro-Arg-chloromethylketone (PPACK))
# T1 construct: Bought (Haematologic Technologies)
# Experiment: ELISA
# T1 sequence (P04070 other isoform, or with tags, fused parts or gaps): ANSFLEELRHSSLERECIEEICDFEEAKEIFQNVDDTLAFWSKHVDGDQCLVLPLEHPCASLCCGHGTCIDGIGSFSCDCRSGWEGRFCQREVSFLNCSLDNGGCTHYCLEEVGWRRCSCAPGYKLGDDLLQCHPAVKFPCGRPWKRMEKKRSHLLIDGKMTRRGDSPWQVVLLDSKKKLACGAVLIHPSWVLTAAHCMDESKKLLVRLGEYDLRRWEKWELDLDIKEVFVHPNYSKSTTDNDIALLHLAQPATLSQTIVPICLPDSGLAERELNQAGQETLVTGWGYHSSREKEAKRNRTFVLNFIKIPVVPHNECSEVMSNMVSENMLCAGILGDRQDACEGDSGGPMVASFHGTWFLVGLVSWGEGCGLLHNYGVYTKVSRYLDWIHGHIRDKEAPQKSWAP
row,binding result,Binder
1,binds,B1
2,binds,B2
3,binds,B3
4,binds,B4
5,binds,B5
6,binds,B6
7,binds,B7
8,binds,B8
9,binds,B9
10,binds,B10
11,binds,B11
12,binds,B12
13,binds,B13
14,binds,B14

# Target: T2, human protein C (PC) zymogen (human, UniProt P04070 43-197; P04070 200-461)
# T2 construct: Bought
# Experiment: ELISA screen, PC-coated wells, OD450, n=2 [Continued]
# T2 sequence (P04070 43-197, chain 1 of 2): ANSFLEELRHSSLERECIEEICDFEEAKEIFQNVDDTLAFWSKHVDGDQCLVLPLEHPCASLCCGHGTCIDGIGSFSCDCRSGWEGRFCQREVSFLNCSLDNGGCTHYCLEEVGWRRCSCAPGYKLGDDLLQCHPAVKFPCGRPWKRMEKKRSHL
# T2 sequence (P04070 200-461, chain 2 of 2): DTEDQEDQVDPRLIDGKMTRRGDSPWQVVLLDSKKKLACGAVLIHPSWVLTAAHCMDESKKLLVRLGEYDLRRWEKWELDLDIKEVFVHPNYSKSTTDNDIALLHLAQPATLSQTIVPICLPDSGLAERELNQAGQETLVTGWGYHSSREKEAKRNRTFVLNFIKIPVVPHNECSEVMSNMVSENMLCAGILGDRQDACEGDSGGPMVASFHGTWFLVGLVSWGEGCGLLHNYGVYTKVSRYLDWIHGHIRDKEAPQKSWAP
row,binding result,Binder
1,no binding,B1
2,no binding,B2
3,no binding,B3
4,no binding,B4
5,no binding,B5
6,no binding,B6
7,no binding,B7
8,no binding,B8
9,no binding,B9
10,no binding,B10
11,no binding,B11
12,no binding,B12
13,no binding,B13
14,no binding,B15
15,no binding,B14

# Source: patent US20250163183A1 (COAGULANT THERAPEUTICS, published 2025)
